Experimental findings from patent US10307466B2, “Composition comprising sophorolipid, physiologically active substance and oil or fat, and method for producing the same” (SARAYA CO., LTD., priority 2014, dated 2019) are described below.

The experiment relates to ICR mice. In words: Tail-flick test with 48° C. heat stimulation (enhancement of the analgesic effect of morphine). The format is in vivo. Details: key: −: no analgesic effect was observed; ±: an analgesic effect comparable to the treatment control was observed; +: an analgesic effect comparable to the positive control was observed; ++: a higher analgesic effect than the positive control was observed; +++: a higher analgesic effect than “++” was observed. As for the experimental part: For the evaluation of an analgesic effect, the tail-flick test was performed with 48° C. heat stimulation. In the tail-flick test, the tail of mice is exposed to heat stimulation, and latency for the animal to flick the tail is measured. The response latency is known to be delayed after administration of an analgesic drug such as morphine. The test is used for the evaluation of an analgesic effect.
ICR mice at 5 weeks old were subjected to daily simultaneous administration of an intraperitoneal dose of morphine (3 mg/kg) (morphine hydrochloride (trade name), Daiichi Sankyo) and an oral dose of one of the compositions of Examples 1 to 3 (300 mg/kg bLF) and Comparative Example 1 (300 mg/kg) for 5 days. At 30 and 90 minutes after the administration on day 5, the tail-flick test was performed.
As a treatment control, ICR mice at 5 weeks old were subjected to daily simultaneous administration of an intraperitoneal dose of morphine (3 mg/kg) and an oral dose of physiological saline for 5 days. The tail-flick test was then performed in the same manner as above.
As a negative control, daily simultaneous administration of an intraperitoneal dose of physiological saline and an oral dose of physiological saline was performed for 5 days. […]

B1: bovine lactoferrin (protein, UniProt P24627 20-708, looked up)
Lactotransferrin: APRKNVRWCTISQPEWFKCRRWQWRMKKLGAPSITCVRRAFALECIRAIAEKKADAVTLDGGMVFEAGRDPYKLRPVAAEIYGTKESPQTHYYAVAVVKKGSNFQLDQLQGRKSCHTGLGRSAGWIIPMGILRPYLSWTESLEPLQGAVAKFFSASCVPCIDRQAYPNLCQLCKGEGENQCACSSREPYFGYSGAFKCLQDGAGDVAFVKETTVFENLPEKADRDQYELLCLNNSRAPVDAFKECHLAQVPSHAVVARSVDGKEDLIWKLLSKAQEKFGKNKSRSFQLFGSPPGQRDLLFKDSALGFLRIPSKVDSALYLGSRYLTTLKNLRETAEEVKARYTRVVWCAVGPEEQKKCQQWSQQSGQNVTCATASTTDDCIVLVLKGEADALNLDGGYIYTAGKCGLVPVLAENRKSSKHSSLDCVLRPTEGYLAVAVVKKANEGLTWNSLKDKKSCHTAVDRTAGWNIPMGLIVNQTGSCAFDEFFSQSCAPGADPKSRLCALCAGDDQGLDKCVPNSKEKYYGYTGAFRCLAEDVGDVAFVKNDTVWENTNGESTADWAKNLNREDFRLLCLDGTRKPVTEAQSCHLAVAPNHAVVSRSDRAAHVKQVLLHQQALFGKNGKNCPDKFCLFKSETKNLLFNDNTECLAKLGGRPTYEEYLGTEYVTAIANLKKCSTSPLLEACAFLTR
As for B1, the “Evaluation at 30 min (analgesic effect, tail-flick test)” value (30 minutes after administration on day 5, daily i.p. morphine 3 mg/kg + oral composition (300 mg/kg bLF) for 5 days) is reported as “+”. Under “90 minutes after administration on day 5, daily i.p. morphine 3 mg/kg + oral composition (300 mg/kg bLF) for 5 days”, the “Evaluation at 90 min (analgesic effect, tail-flick test)” value is reported as “+”.
